From PMC7954794, “Protein context shapes the specificity of SH3 domain-mediated interactions in vivo” (Nature Communications, 2021)

System: growth of yeast strains under 51 stress conditions
Assay: Growth assays in 51 stress conditions (Fig. 1E-F, S2D, S5B)
Assay type: cell-based, Saccharomyces cerevisiae
Design: key to Growth (Fig. S2D) / growth of ABP1 SH3-swapped strains in stress condition: log2 colony size, average of median per strain (growth score)
Settings: ABP1 SH3-swapped strains
Summary of the method: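 Colony sizes at 74 h on 51 stress media (37 °C) were log2 transformed, corrected for plate effects, and averaged across two plates as per-plate medians (growth score). Strains arrayed in 12 replicates with WT border, grown first on YPD for two days at 30 °C.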

B1: BOI1 (protein, UniProt P38041 1-980, looked up)
BEM1-interacting protein 1: MSLEGNTLGKGAKSFPLYIAVNQYSKRMEDELNMKPGDKIKVITDDGEYNDGWYYGRNLRTKEEGLYPAVFTKRIAIEKPENLHKSPTQESGNSGVKYGNLNDSASNIGKVSSHQQENRYTSLKSTMSDIDKALEELRSGSVEQEVSKSPTRVPEVSTPQLQDEQTLIQEKTRNEENTTHDSLFSSTADLNLSSESLKNISKSNISTKSLEPSSESVRQLDLKMAKSWSPEEVTDYFSLVGFDQSTCNKFKEHQVSGKILLELELEHLKELEINSFGIRFQIFKEIRNIKSAIDSSSNKLDADYSTFAFENQAAQLMPAATVNRDEIQQQISSKCNKLSSESSDRKSSSVTTELQRPSSVVVNPNFKLHDPAEQILDMTEVPNLFADKDIFESPGRAPKPPSYPSPVQPPQSPSFNNRYTNNNARFPPQTTYPPKNKNPTVYSNGLIPNSSTSSDNSTGKFKFPAMNGHDSNSRKTTLTSATIPSINTVNTDESLPAISNISSNATSHHPNRNSVVYNNHKRTESGSSFVDLFNRISMLSPVKSSFDEEETKQPSKASRAVFDSARRKSSYGHSRDASLSEMKKHRRNSSILSFFSSKSQSNPTSPTKQTFTIDPAKMTSHSRSQSNSYSHARSQSYSHSRKHSLVTSPLKTSLSPINSKSNIALAHSETPTSSNNKEAVSQPSEGKHKHKHKHKSKHKHKNSSSKDGSSEEKSKKKLFSSTKESFVGSKEFKRSPSELTQKSTKSILPRSNAKKQQTSAFTEGIRSITAKESMQTADCSGWMSKKGTGAMGTWKQRFFTLHGTRLSYFTNTNDEKERGLIDITAHRVLPASDDDRLISLYAASLGKGKYCFKLVPPQPGSKKGLTFTEPRVHYFAVENKSEMKAWLSAIIKATIDIDTSVPVISSYATPTIPLSKAQTLLEEARLQTQLRDAEEEEGRDQFGWDDTQNKRNSNYPIEQDQFETSDYLESSAFEYPGGRL
B1 was tested, and the “Growth (Fig. S2D)” value (Bathophenanthroline.0.1uM) was 10.8558, the “Growth (Fig. S2D)” value (Bathophenanthroline.10uM) was 10.6819 and the “Growth (Fig. S2D)” value (Bathophenanthroline.1uM) was 10.8124. The “Growth (Fig. S2D)” value (CaCl2.100mM) was 10.8898, the “Growth (Fig. S2D)” value (CaCl2.250mM) was 10.7569 and the “Growth (Fig. S2D)” value (CaCl2.500mM) was 10.2369. The “Growth (Fig. S2D)” value (Caffein.10mM) was 9.961, the “Growth (Fig. S2D)” value (Caffein.2mM) was 10.9473 and the “Growth (Fig. S2D)” value (CdCl2.100uM) was 9.222. The “Growth (Fig. S2D)” value (CdCl2.10uM) was 10.8438, the “Growth (Fig. S2D)” value (CdCl2.50uM) was 9.731 and the “Growth (Fig. S2D)” value (CuSO4.1mM) was 10.511. For the same molecule, the “Growth (Fig. S2D)” value (CuSO4.5mM) was 7.921, the “Growth (Fig. S2D)” value (Cycloheximide.0.05.uM) was 11.026 and the “Growth (Fig. S2D)” value (Cycloheximide.0.2.uM) was 10.6068. The “Growth (Fig. S2D)” value (Cycloheximide.0.5.uM) was 10.1487, the “Growth (Fig. S2D)” value (DMSO.2.) was 10.9996 and the “Growth (Fig. S2D)” value (DMSO.6.) was 9.7528. The “Growth (Fig. S2D)” value (DMSO.8.) was 9.017, the “Growth (Fig. S2D)” value (Ethanol.2.) was 10.7382 and the “Growth (Fig. S2D)” value (Ethanol.6.) was 10.327. The “Growth (Fig. S2D)” value (Ethanol.8.) was 10.13, the “Growth (Fig. S2D)” value (Galactose.2.) was 10.7623 and the “Growth (Fig. S2D)” value (Glycerol.2.) was 9.776. The “Growth (Fig. S2D)” value (Hydroxyurea.25mM) was 10.8154, the “Growth (Fig. S2D)” value (Hygromycin.190uM) was 11.0114 and the “Growth (Fig. S2D)” value (Hygromycin.19uM) was 10.9627. The “Growth (Fig. S2D)” value (Hygromycin.95uM) was 10.9456, the “Growth (Fig. S2D)” value (MMS.0.004.) was 11.0063 and the “Growth (Fig. S2D)” value (MMS.0.02.) was 10.7015. For the same molecule, the “Growth (Fig. S2D)” value (MMS.0.04.) was 10.0905, the “Growth (Fig. S2D)” value (Menadione.100uM) was 10.612 and the “Growth (Fig. S2D)” value (Menadione.200uM) was 10.4246. For the same molecule, the “Growth (Fig. S2D)” value (Menadione.50uM) was 10.8341, the “Growth (Fig. S2D)” value (NaCl.0.25M) was 10.7827 and the “Growth (Fig. S2D)” value (NaCl.1M) was 9.573. The “Growth (Fig. S2D)” value (Nitroquinoline.10uM) was 10.6267, the “Growth (Fig. S2D)” value (Nitroquinoline.50uM) was 10.6407 and the “Growth (Fig. S2D)” value (Nystatin.0.01uM) was 11.0406. The “Growth (Fig. S2D)” value (Nystatin.0.1uM) was 11.0134, the “Growth (Fig. S2D)” value (Raffinose.2.) was 11.0354 and the “Growth (Fig. S2D)” value (Rapamycin.10nM) was 9.9199. The “Growth (Fig. S2D)” value (Rapamycin.50nM) was 9.475, the “Growth (Fig. S2D)” value (SC.pH3) was 10.3897 and the “Growth (Fig. S2D)” value (SC.pH6) was 10.9841. For the same molecule, the “Growth (Fig. S2D)” value (SDS.0.01.) was 10.9238, the “Growth (Fig. S2D)” value (SDS.0.02.) was 11.0048 and the “Growth (Fig. S2D)” value (SDS.0.05.) was 10.8898. For the same molecule, the “Growth (Fig. S2D)” value (Sorbitol.10mM) was 10.9854, the “Growth (Fig. S2D)” value (Sorbitol.1mM) was 11.0069 and the “Growth (Fig. S2D)” value (Sorbitol.5mM) was 10.9417.
